Reference: PMC4682175 (2015)

Molecular target: T1, Neogenin (Mus musculus, UniProt P97798)
T1 chain: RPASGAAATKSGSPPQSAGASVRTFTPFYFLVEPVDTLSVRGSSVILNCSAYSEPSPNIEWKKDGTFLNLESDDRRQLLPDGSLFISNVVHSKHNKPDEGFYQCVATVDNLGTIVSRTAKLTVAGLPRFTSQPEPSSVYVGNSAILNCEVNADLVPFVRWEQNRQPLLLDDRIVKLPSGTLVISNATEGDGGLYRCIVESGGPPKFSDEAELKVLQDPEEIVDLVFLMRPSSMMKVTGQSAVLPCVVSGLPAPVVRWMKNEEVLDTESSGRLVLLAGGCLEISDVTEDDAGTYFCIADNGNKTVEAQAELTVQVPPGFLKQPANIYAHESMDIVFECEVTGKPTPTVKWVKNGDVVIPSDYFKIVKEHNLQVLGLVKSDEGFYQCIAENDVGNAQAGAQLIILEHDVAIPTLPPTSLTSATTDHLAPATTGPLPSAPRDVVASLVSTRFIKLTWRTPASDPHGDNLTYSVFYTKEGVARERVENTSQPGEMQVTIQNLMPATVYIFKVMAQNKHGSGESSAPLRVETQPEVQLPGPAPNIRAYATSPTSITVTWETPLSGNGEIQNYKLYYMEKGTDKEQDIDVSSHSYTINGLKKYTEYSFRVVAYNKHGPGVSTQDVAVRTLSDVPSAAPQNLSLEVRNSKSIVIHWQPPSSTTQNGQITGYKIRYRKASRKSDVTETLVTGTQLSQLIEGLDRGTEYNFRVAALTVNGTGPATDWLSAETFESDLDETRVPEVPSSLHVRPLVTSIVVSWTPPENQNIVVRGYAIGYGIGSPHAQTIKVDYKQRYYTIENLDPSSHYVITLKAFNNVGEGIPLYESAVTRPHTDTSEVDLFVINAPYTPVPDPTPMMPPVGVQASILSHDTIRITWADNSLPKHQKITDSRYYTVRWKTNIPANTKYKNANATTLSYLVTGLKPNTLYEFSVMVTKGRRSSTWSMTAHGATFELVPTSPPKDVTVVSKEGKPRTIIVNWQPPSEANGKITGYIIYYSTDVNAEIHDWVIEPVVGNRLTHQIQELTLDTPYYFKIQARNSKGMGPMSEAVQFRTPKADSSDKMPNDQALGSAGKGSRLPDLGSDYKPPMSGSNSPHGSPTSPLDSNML
Experiment: saturation binding of draxin-AP to Neo1-transfected HEK293T cells, Scatchard analysis

Kd: 0.62 nM
B1: Draxin (protein)
chain: GTLASGSSARNLPETHSHLPSSALWVSQASHHGRRGLGKKDRGPGRPSRAQEGAVVTATKQASQMTLGQPPAGLLQNKELLLGLTLPYPEKEARSPAWERVKKRGREHKRRRDRLRLHRGRAAIRGPSSLMKKVEPSEDRMLEGTMEESSTSLAPTMFFLTMTDGATPTTEESRILPVTSLRPQTQPRSDGEVMPTLDMALFDWTDYEDLKPEVWPSAKKKEKHWSHFTSDGNETSPAEGDPCDHHQDCLPGTCCDLREHLCTPHNRGLNNKCFDDCMCMEGLRCYAKFHRNRRVTRRKGRCVEPETANGDQGSFINI
modifications: draxin alkaline phosphatase fusion
